Assay results from publication PMC3233575, “DC-SIGN Increases the Affinity of HIV-1 Envelope Glycoprotein Interaction with CD4” (PLoS ONE, 2011).

Target: the molecule itself
Assay: SEC; two tandem Superdex 200 3.2/30 PC columns, 100 mM Tris-HCl pH 7.9, 0.15 M NaCl, room temperature, about 50 µg refolded protein; monomer to oligomer equilibrium

B1: soluble recombinant DC-SIGN, entire extracellular domain (residues 70-404) (domain or fragment)
chain: EQSRQDAIYQNLTQLKAAVGELSEKSKLQEIYQELTQLKAAVGELPEKSKLQEIYQELTRLKAAVGELPEKSKLQEIYQELTWLKAAVGELPEKSKMQEIYQELTRLKAAVGELPEKSKQQEIYQELTRLKAAVGELPEKSKQQEIYQELTRLKAAVGELPEKSKQQEIYQELTQLKAAVERLCHPCPWEWTFFQGNCYFMSNSQRNWHDSITACKEVGAQLVVIKSAEEQNFLQLQSSRSNRFTWMGLSDLNQEGTWQWVDGSPLLPSFKQYWNRGEPNNVGEEDCAEFSGNGWNDDKCNLAKFWICKKSAASCSRDEEQFLSPAPATPNPPPA
notes: DC-SIGN, entire extracellular domain, residues 70-404 of GenBank NP_066978; cDNA of immature monocyte-derived dendritic cells; the sense primer carries an ATG before the first DC-SIGN codon; The preparation is a monomer:tetramer equilibrium (3.3:1 tetramer to monomer by SEC); the tetramer predominates. pET15b normally adds an N-terminal His6 tag with a thrombin site (surmised); no cleavage is …
B1 was tested, and the “stoichiometry N” value was 4.
